By stoichiometry N is commonly meant the number of molecules, sites or subunits per partner or assembly.

Consider two molecules from publication PMC12977500, “Mechanistic insights into SteAB regulation of cell wall hydrolase RipA in Mycobacterium tuberculosis” (mBio, 2026).

Data set [1] concerns the target T1, MtSteB△TM (soluble M. tuberculosis SteB devoid of its TM domain, residues 38–314) (Mycobacterium tuberculosis, UniProt P9WJ83 38-314).
T1 construct: Homodimer in both crystal structures; also called MctB; Rv1698; not shown: His6, N-terminal, cleaved; SUMO, N-terminal, cleaved
Put plainly: BLI; biotinylated MtRipACC immobilised on streptavidin biosensors; Octet-Red384, 25°C; 25 mM HEPES pH 7.5, 150 mM NaCl, 5% glycerol, 1 mg/mL BSA, 0.05% Tween 20; MtSteB 200–3.125 μM or MtRipACAT 80–1.25 μM; steady-state signal, one-site binding model; apparent Kd. To be noted: both partners purified. (In general: In BLI a coated tip is dipped into the sample, and binding shifts an interference pattern.)

Data set [2] concerns the molecule itself. Put plainly: SEC-SLS; SEC with triple detection (UV, refractometer, SLS 7° and 90°, viscometer), Superdex 75 Increase 10/300 GL, 25 mM Hepes pH 7.5, 150 mM NaCl, 20°C; sample 1–5 mg/mL.

T1 sequence (P9WJ83 38-314): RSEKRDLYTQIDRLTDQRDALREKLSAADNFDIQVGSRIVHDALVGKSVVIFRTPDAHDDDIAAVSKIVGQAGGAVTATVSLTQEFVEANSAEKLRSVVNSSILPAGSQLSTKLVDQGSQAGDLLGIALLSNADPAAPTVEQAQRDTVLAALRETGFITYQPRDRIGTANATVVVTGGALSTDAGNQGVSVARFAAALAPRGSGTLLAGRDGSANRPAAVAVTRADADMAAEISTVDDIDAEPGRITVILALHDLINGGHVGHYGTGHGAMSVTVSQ

B1: MtRipACC (coiled-coil domain of M. tuberculosis RipA, residues 40–240) (domain or fragment)
chain: DPQTDTIAALIADVAKANQRLQDLSDEVQAEQESVNKAMVDVETARDNAAAAEDDLEVSQRAVKDANAAIAAAQHRFDTFAAATYMNGPSVSYLSASSPDEIIATVTAAKTLSASSQAVMANLQRARTERVNTESAARLAKQKADKAAADAKASQDAAVAALTETRRKFDEQREEVQRLAAERDAAQARLQAARLVAWSSE
modifications: biotin (EZ-Link NHS-PEG4-Biotin, 20 molar excess) in the BLI assays only
notes: Biotinylated and immobilised on streptavidin sensors for BLI; not biotinylated in the crystal of the complex; also called RipA coiled-coil domain; CC domain of RipA; not shown: His6, N-terminal, cleaved; SUMO, N-terminal, cleaved
Take B1: the Kd in data set [1] was 42.6 ± 4.4 µM.

B2: MtSteA△TM (truncated soluble construct of M. tuberculosis SteA, residues 12–344) (domain or fragment)
chain: SRPGLIGIARVDRNIDRLLRRVCPGDIVVLDVLDLDRITADALVEAEIAAVVNASSSVSGRYPNLGPEVLVTNGVTLIDETGPEIFKKVKDGAKVRLYEGGVYAGDRRLIRGTERTDHDIADLMREAKSGLVAHLEAFAGNTIEFIRSESPLLIDGIGIPDVDVDLRRRHVVIVADEPSGPDDLKSLKPFIKEYQPVLVGVGTGADVLRKAGYRPQLIVGDPDQISTEVLKCGAQVVLPADADGHAPGLERIQDLGVGAMTFPAAGSATDLALLLADHHGAALLVTAGHAANIETFFDRTRVQSNPSTFLTRLRVGEKLVDAKAVATLYRNHI
notes: Dimer in solution and in the crystal; also called Rv1697; not shown: His6, N-terminal, cleaved; SUMO, N-terminal, cleaved
As for B2, in data set [2], the “stoichiometry N” value amounted to 2.
